Measurements as given in publication PMC3366968, “Functional Characterization of a First Avian Cytochrome P450 of the CYP2D Subfamily (CYP2D49)” (PLoS ONE, 2012).

Substrate: CCc1cccc2cc(C(O)CNC(C)(C)C)oc12
Experiment: purified protein
Format: biochemical, Gallus gallus
Conditions: 2-200 µM bufuralol, NADPH, NADPH-P450 reductase, cytochrome b5, liposome, 10 mM MgCl2, 100 mM potassium phosphate pH 7.4, 37°C

B1: CYP2D49 (Gallus gallus) (protein)
chain: MTLLLWLSSWSNISVLGVFLTVFTILVDFMKRRKKWSRYPPGPMPLPFVGTMPYVNYYNPHLSFEKFRKKFGNIFSLQNCWTNVVVLNGYKTVKEALVNKSEDFADRPYMPVYEHLGYGHKSEGLVLARYGHLWKELRKFTLTTLRNFGMGKKSLEERVTEEAGFLCSAISSEGGHPFDPRFLVNNAVCNVICTITYGERFDYGDKTFKKLLTLFENSLNEEAGFLPQLLNVAPVLLRIPGLPQKIFPCQKAYVDFTQMLIDKHKETWNPAYIRDFTDAFLKEMAKGKEAEENGFNKSNLTLVTADLLVAGSETTATTLRWAFLFMLLYPEIQSKVHKEIDKVIGRNRPPTMADQVNMPYTNAVIHEVQRFGDVVPMGLPHMTYRDTELQGFFIPKGTTIITNLTSVLKDETAWKKPNEFYPEHFLNENGQFVRPEAFLPFSAGRRACLGEQLTRMELFIFFTTLMQKFTFVFPEDQPRPREDSHFAFTNSPHPYQLRAVPR
notes: full-length 502-residue ORF, N-terminal ompA leader (21 aa) plus Leu-Glu spacer, Myc-His-tagged fusion, about 55 kDa, expressed in E. coli DH5alpha, purified by Ni-NTA
- Km: 3.948 ± 0.232 µM
